Test results as given in patent US20240352143A1 (Incyte, published 2024).

T1: recombinant human CD73 (human, UniProt P21589 27-549)
T1 construct: Soluble recombinant CD73 (BPS Bioscience stock in the SPR); also called rhuCD73; human CD73, open conformation
T1 sequence: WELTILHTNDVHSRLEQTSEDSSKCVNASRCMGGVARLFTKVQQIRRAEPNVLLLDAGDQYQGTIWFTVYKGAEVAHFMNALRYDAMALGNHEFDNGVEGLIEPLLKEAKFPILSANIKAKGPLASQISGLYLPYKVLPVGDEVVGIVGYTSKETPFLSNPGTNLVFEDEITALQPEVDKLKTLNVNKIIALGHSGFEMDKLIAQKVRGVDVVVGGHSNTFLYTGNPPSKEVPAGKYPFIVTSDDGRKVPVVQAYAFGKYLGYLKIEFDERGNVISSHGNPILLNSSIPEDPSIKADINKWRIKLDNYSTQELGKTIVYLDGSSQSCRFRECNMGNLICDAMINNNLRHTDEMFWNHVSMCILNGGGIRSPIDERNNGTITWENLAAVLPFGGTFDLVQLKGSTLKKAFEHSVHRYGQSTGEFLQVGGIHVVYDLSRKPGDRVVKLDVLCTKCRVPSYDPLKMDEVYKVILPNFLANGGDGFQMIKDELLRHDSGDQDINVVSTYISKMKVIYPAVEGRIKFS

T2: cell surface CD73 on MDA-MB-231 and A375 cells (human, UniProt P21589 27-549)
T2 construct: A375: moderate level; also called cellular CD73
T2 sequence: T1 sequence

B1: HzCL25 (antibody, human IgG1, kappa, N297A, V domains shown)
VH: EVQLVQSGAEVKKPGESLKISCKGSGYTFTSYGLSWVRQMPGKGLEWMGEIYPGSGNTYYNEKFKGQVTISADKSISTAYLQWSSLKASDTAMYYCARYDYLGSSYGFDYWGAGTTVTVSS
VL: DIVMTQSPDSLAVSLGERATINCKASQDVSTAVAWYQQKPGQPPKLLIYSASYRYSGVPDRFSGSGSGTDFTLTISSLQAEDVAVYYCQQHYNTPYTFGGGTKLEIKR
notes: Humanized IgG1/kappa with N297A (EU); also called HzCL25 IgG; humanized CL25
B2: CL25_hu_8-5 (antibody, V domains shown)
VH: QVQLVQSGAEVKKPGASVKVSCKASGYTFTSYGLSWVRQATGQGLEWMGEIYPGSGNTYYNEKFKGRVTMTRNTSISTAYMELSSLRSEDTAVYYCARYDYLGSSYGFDYWGAGTTVTVSS
VL: DIVMTQSPDSLAVSLGERATINCKASQDVSTAVAWYQQKPGQPPKLLIYSASYRYSGVPDRFSGSGSGTDFTLTISSLQAEDVAVYYCQQHYNTPYTFGGGTKLEIK
notes: Humanized CL25 variant

Legend:
recombinant human CD73 = target: T1, recombinant human CD73; assay: enzyme inhibition assay with recombinant full length CD73, adenosine by LC-MS, mixed-inhibition model
Description: Briefly, the inhibition potencies of the agents were measured in an enzyme assay using adenosine ¹³C₁₀, ¹⁵N₅ 5′-monophosphate sodium salt solution (650676, Sigma) as substrate and detecting product, adenosine by LC-MS. Antibody agents were serially diluted in buffer and a volume of 5 μL was transferred to a 96-well plate. 20 μL of 0.5 μM recombinant CD73 in assay buffer (25 mM Tris, 5 mM MgCl₂, 0.005% Brij35 pH 7.5) was added to the plate and pre-incubated for 2 hours at 25° C. The assay was initiated by the addition of a 25 μL solution containing AMP at various concentrations. The reactions were run for 0.5 hr at 25° C. and then quenched with 50 μL of methanol.

[1] = target: T2, cell surface CD73 on MDA-MB-231 and …; assay: flow cytometry on MDA-MB-231 cells, antibody 30 min on ice, PE-conjugated secondary antibody, GMFI
Description: The cells were stained with the indicated concentration of antibodies for 30 minutes on ice (FIG. 2A and FIG. 2B). Next, the cells were washed and stained using goat anti-mouse secondary conjugated to phycoerythrin (PE) for 30 minutes on ice. The cells were then washed and analyzed by flow cytometry. Geometric mean fluorescence intensity (GMFI) of CD73 staining was graphed (FIG. 2A and FIG. 2B).

Row | Binder | Ki (recombinant human CD73) [nM] | EC50 (read off the curve) [1] [µg/mL]
1 | B1 | 0.3 | –
2 | B2 | – | ~0.06
